Measured values published in PMC3958441, “Isl1 and Pou4f2 Form a Complex to Regulate Target Genes in Developing Retinal Ganglion Cells” (PLoS ONE, 2014).

T1: Isl1D1 (mouse, UniProt P61372 1-181)
T1 sequence: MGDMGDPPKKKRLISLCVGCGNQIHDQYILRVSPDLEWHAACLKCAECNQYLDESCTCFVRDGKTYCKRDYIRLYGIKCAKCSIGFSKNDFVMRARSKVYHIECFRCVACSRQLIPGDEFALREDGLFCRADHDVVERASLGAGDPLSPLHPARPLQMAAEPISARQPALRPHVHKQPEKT

T2: Pou4f2D4 (mouse, UniProt Q63934 169-411)
T2 sequence: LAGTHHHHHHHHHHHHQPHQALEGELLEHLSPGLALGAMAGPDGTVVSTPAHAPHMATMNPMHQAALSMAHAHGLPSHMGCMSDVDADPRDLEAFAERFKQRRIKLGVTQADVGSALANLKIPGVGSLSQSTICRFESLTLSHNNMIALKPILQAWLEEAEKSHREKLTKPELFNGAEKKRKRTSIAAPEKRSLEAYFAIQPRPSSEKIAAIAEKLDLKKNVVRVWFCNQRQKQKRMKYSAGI

T3: Isl1 (mouse, UniProt P61372 1-349)
T3 sequence: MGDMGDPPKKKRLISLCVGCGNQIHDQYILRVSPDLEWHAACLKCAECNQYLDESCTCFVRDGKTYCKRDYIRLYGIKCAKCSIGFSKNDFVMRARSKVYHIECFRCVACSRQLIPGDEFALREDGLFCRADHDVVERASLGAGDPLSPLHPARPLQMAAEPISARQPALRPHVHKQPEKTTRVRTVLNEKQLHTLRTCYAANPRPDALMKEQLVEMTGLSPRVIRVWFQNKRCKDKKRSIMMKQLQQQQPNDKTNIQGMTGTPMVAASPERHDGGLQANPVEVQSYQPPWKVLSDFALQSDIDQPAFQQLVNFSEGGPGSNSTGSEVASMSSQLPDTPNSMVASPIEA

T4: Pou4f2 (Brn3b) (mouse, UniProt Q63934 1-411)
T4 sequence: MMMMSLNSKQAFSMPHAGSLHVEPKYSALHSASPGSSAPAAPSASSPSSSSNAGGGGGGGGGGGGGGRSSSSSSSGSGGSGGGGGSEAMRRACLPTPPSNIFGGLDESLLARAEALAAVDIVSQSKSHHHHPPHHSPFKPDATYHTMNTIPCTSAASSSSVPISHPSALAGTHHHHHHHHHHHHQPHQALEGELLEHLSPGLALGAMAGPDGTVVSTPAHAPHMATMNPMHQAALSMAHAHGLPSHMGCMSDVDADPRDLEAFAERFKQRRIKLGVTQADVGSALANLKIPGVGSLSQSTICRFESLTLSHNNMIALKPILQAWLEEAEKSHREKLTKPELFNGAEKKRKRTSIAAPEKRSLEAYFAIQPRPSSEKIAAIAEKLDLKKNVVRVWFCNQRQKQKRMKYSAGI

T5: Pou4f2D3 (mouse, UniProt Q63934 240-411)
T5 sequence: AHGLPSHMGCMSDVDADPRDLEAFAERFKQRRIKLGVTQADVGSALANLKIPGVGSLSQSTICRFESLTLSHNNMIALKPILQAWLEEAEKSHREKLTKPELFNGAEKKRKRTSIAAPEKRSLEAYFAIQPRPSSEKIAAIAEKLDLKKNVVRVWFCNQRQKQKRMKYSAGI

T6: Pou4f2D1 (mouse, UniProt Q63934 1-260)
T6 sequence: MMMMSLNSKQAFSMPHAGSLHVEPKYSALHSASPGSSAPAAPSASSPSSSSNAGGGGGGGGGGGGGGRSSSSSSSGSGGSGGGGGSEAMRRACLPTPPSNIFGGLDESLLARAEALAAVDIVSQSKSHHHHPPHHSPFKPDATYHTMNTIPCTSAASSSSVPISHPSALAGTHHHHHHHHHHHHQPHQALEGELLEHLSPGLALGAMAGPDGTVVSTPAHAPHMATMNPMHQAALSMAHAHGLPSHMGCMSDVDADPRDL

B1: SBRN3(W) (dsDNA)
DNA 1: GCACACGACCCAATGAATTAATAACCGGGCTG
DNA 2: GCAGCCCGGTTATTAATTCATTGGGTCGTGTG
B2: CBRN3(W) (dsDNA)
DNA 1: GATCTCTCCTGCATAATTAATTACCCCCGGAT
DNA 2: GATCCGGGGGTAATTAATTATGCAGGAGAGAT

Assays:
Assay in all cases: EMSA; EMSA: 20 mM Tris-HCl pH 7.5, 50 mM NaCl, 10 mM DTT, 1 mM EDTA, 5% glycerol, 200 ng dI/dC, 200 ng each protein in 20 ul, 4 C, 30 min; 8% PAGE, 1x TBE, 4 C
Isl1D1 = target: T1, Isl1D1; conditions: protein: recombinant; tags: His (C-terminal); (radiolabel, Klenow fill-in); 5' overhang 1 nt at both ends before fill-in
Pou4f2D4 = target: T2, Pou4f2D4; conditions: protein: recombinant; tags: His (C-terminal); (radiolabel, Klenow fill-in); 5' overhang 1 nt at both ends before fill-in
Isl1 = target: T3, Isl1; conditions: protein: recombinant; tags: His (C-terminal, pET-28a); (radiolabel, Klenow fill-in); 5' overhang 1 nt at both ends before fill-in
Pou4f2 (Brn3b) = target: T4, Pou4f2 (Brn3b); conditions: protein: recombinant; tags: His (C-terminal, pET-28a); (radiolabel, Klenow fill-in); 5' overhang 1 nt at both ends before fill-in
Pou4f2D3 = target: T5, Pou4f2D3; conditions: protein: recombinant; tags: His (C-terminal); (radiolabel, Klenow fill-in); 5' overhang 1 nt at both ends before fill-in
Pou4f2D1 = target: T6, Pou4f2D1; conditions: protein: recombinant; tags: His (C-terminal); (radiolabel, Klenow fill-in); 5' overhang 1 nt at both ends before fill-in

Binder | binding result (Isl1D1) | binding result (Pou4f2D4) | binding result (Isl1) | binding result (Pou4f2 (Brn3b)) | binding result (Pou4f2D3) | binding result (Pou4f2D1)
B1 | no binding | binds | binds | binds | binds | no binding
B2 | no binding | binds | binds | binds | binds | no binding
